Measured values published in paper doi:10.1101/731679, “Structural insights into the mechanism of the human soluble guanylate cyclase” (bioRxiv, 2019).
Where a chain is given by its changes, count along the chain named. Names and notes keep the numbering of the source. Blank lines part the entries; values can stand above or below the binder they belong to.

How the values were obtained:
[1] = molecular target: T1, cys-less human sGC α1 subunit with L275C (α1^CL L275C), C-terminal GFP-strep (human, UniProt Q02108 64-690, C176A | C239A | C669S | C455Y | C460G | L275C); assay: cross-linking; disulfide cross-linking of Streptactin-purified cys-less sGC with 0.1 mM Cu(II)(1,10-phenanthroline)3 on ice for 30 min; SDS-PAGE non-reducing or reducing (100 mM DTT); in-gel GFP fluorescence of α1; settings: both partners purified
T1 construct: soluble guanylate cyclase α1 subunit, human; the cys-rich N-terminal 63 amino acids removed; cys-less background plus L275C; also called α1 L275C; source: HEK293F, transfected (BacMam vector), purified with β1 on Streptactin Beads 4FF; not shown: GFP, C-terminal, kept; strep, C-terminal, kept
T1 sequence (looked up): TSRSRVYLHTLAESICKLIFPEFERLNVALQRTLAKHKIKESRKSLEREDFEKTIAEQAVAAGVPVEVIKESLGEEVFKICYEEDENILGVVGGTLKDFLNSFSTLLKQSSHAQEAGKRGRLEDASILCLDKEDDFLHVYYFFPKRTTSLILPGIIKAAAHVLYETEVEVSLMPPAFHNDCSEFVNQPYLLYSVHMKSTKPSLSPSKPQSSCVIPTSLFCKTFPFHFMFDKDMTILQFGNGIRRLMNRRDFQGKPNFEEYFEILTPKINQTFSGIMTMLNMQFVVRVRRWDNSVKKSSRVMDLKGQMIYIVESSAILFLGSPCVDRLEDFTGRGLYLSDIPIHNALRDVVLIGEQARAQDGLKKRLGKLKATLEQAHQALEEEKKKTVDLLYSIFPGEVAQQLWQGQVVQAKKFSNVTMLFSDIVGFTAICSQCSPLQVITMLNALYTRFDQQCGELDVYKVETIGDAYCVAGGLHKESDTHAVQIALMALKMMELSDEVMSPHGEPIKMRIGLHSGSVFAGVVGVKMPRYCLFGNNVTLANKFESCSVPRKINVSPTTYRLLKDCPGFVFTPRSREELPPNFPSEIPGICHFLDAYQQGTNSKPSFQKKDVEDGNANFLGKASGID

[2] = molecular target: T2, cys-less human sGC α1 subunit with L425C (α1^CL L425C), C-terminal GFP-strep (human, UniProt Q02108 64-690, C176A | C239A | C669S | C455Y | C460G | L425C); assay: as above; settings: both partners purified
T2 construct: soluble guanylate cyclase α1 subunit, human; the cys-rich N-terminal 63 amino acids removed; cys-less background plus L425C; also called α1 L425C; source: HEK293F, transfected (BacMam vector), purified with β1 on Streptactin Beads 4FF; not shown: GFP, C-terminal, kept; strep, C-terminal, kept
T2 sequence (looked up): T1 sequence (looked up) with C212L, L362C

binding result [1]: binds
B1: cys-less human sGC β1 subunit with A316C (β1^CL A316C), without tags (natural protein, UniProt Q02153 1-619, looked up)
chain: MYGFVNHALELLVIRNYGPEVWEDIKKEAQLDEEGQFLVRIIYDDSKTYDLVAAASKVLNLNAGEILQMFGKMFFVFCQESGYDTILRVLGSNVREFLQNLDALHDHLATIYPGMRAPSFRCTDAEKGKGLILHYYSEREGLQDIVIGIIKTVAQQIHGTEIDMKVIQQRNEECDHTQFLIEEKESKEEDFYEDLDRFEENGTQESRISPYTFCKAFPFHIIFDRDLVVTQCGNAIYRVLPQLQPGNCSLLSVFSLVRPHIDISFHGILSHINTVFVLRSKEGLLDVEKLENEDELTGTEISCLRLKGQMIYLPECDSILFLCSPSVMNLDDLTRRGLYLSDIPLHDATRDLVLLGEQFREEYKLTQELEILTDRLQLTLRALEDEKKKTDTLLYSVLPPSVANELRHKRPVPAKRYDNVTILFSGIVGFNAFCSKHASGEGAMKIVNLLNDLYTRFDTLTDSRKNPFVYKVETVGDKYMTVSGLPEPCIHHARSICHLALDMMEIAGQVQVDGESVQITIGIHTGEVVTGVIGQRMPRYCLFGNTVNLTSRTETTGEKGKINVSEYTYRCLMSPENSDPQFHLEHRGPVSMKGKKEPMQVWFLSRKNTGTEETKQDDD
notes: soluble guanylate cyclase β1 subunit, human; cys-less background (C292N) plus A316C; The PDB entries are of the wild-type parent; also called β1 A316C; source: HEK293F, transfected (BacMam vector), purified with α1 on Streptactin Beads 4FF

binding result [2]: binds
B2: cys-less human sGC β1 subunit with L365C (β1^CL L365C), without tags (natural protein, UniProt Q02153 1-619, looked up)
chain: B1 chain with C316A, L365C
notes: soluble guanylate cyclase β1 subunit, human; cys-less background (C292N) plus L365C; The PDB entries are of the wild-type parent; also called β1 L365C; source: HEK293F, transfected (BacMam vector), purified with α1 on Streptactin Beads 4FF
